Assay results: publication PMC5125079 (Mycopathologia, 2011)

B1: Cryptococcus neoformans recombinant antiphagocytic protein 1 (rApp1) (natural protein)
chain: MMSSATAELCFDCANCVEMLPKGTTKSVTRPEILERLTRIENHIEVQTALLSTMAASKDYKKKVYTDDDDELEEPEVQLCNMTCEMAALKTYKPQTKVSNHKIVIEAALGRLDHVNGESSIRWAQSVILGLQAAETLQNDKQMMELARVIGCLEACELRWAGDWRAGVASITLKELRTLMI
B2: App1 in total protein from C. neoformans WT (H99) (natural protein)
chain: MMSSATAELCFDCANCVEMLPKGTTKSVTRPEILERLTRIENHIEVQTALLSTMAASKDYKKKVYTDDDDELEEPEVQLCNMTCEMAALKTYKPQTKVSNHKIVIEAALGRLDHVNGESSIRWAQSVILGLQAAETLQNDKQMMELARVIGCLEACELRWAGDWRAGVASITLKELRTLMI

Experiments:
[1] = target: the molecule itself; assay: SDS-PAGE with tryptic digestion and mass spectrometry of the bands
[2] = target: the molecule itself; assay: SDS-PAGE and Western blot

Protein | stoichiometry N [1] | stoichiometry N [2]
B1 | 2 | 
B2 |  | 2
